Reference: patent publication US20080242633A1

Target: Apaf-1 (UniProt O14727)
Assay: cell-based or functional assay

Sequence of UniProt O14727 (O14727 whole entry): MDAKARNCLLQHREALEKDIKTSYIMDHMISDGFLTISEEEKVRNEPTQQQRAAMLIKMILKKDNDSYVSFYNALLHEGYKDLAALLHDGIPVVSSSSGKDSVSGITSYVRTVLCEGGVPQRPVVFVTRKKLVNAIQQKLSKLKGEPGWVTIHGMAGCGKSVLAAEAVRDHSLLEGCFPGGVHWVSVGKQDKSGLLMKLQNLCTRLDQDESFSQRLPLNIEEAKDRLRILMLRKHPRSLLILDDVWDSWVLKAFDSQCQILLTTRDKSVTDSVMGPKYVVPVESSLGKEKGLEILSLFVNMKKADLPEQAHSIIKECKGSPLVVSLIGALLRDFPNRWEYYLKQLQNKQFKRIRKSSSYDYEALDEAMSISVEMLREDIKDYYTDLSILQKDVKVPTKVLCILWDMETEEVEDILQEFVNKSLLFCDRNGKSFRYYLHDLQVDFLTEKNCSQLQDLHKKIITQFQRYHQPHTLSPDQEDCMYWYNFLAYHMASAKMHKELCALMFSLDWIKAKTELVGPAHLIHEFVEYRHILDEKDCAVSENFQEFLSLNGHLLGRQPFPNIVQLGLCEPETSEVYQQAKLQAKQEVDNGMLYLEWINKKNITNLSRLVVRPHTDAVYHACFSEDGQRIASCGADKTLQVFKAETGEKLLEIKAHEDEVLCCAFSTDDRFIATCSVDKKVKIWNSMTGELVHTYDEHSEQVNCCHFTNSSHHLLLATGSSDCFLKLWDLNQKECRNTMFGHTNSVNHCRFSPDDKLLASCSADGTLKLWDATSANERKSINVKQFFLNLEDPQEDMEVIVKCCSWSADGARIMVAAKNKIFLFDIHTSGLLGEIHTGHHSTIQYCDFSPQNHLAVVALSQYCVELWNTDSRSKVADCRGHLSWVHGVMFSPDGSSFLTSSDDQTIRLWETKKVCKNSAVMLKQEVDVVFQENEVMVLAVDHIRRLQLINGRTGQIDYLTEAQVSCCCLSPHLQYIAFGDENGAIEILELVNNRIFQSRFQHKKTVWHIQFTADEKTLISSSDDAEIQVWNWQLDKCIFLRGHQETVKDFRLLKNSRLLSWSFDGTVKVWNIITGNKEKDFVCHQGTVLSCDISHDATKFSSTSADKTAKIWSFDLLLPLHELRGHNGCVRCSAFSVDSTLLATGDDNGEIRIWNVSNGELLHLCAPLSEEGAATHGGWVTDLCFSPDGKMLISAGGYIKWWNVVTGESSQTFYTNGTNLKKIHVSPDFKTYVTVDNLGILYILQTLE

caspase-3 activation activity (AMC production rate from Ac-DEVD-AMC, cell-free assay with U-937 cytosol) (fold greater than wild type): 1.4
Substance: CYCS(Gly42-Ser) (from UniProt P99999 2-105)
